We go through one molecule from patent US20220031857A1.

In test [1] the target is recombinant mouse TfR1 (transferrin receptor 1) (mouse) (UniProt Q62351). Nature of the test: Octet, mouse TfR1 immobilised on biosensors; row buffer (no first antibody), column 8D3.
For test [2] the target is unchanged. Put plainly: Octet, mouse TfR1 on anti-His biosensors, analyte 10 nM, PBS pH 7.2.
The target is the same in test [3]. Put plainly: Octet, mouse TfR1 on anti-His biosensors, analyte 10 nM, PBS pH 6.0.

Sequence of recombinant mouse TfR1 (transferrin receptor 1) (mouse) (Q62351 89-763 limits assumed): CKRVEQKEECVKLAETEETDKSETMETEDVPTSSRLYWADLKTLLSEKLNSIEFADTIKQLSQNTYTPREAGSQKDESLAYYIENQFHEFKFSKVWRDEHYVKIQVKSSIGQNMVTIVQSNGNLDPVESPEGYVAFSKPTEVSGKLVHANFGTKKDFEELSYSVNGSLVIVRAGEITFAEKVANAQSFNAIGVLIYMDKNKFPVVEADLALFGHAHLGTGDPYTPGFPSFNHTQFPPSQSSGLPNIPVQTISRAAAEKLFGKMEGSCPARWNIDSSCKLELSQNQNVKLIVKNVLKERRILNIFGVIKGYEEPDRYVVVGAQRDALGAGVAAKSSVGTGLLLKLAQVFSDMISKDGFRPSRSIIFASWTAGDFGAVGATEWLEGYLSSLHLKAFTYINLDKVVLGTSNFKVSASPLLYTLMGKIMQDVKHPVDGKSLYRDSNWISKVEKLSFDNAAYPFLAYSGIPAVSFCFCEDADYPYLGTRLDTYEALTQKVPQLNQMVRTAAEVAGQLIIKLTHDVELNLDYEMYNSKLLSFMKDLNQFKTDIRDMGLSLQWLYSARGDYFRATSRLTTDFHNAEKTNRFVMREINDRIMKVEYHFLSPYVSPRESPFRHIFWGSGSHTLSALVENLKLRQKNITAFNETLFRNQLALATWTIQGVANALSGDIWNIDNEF

B1: 8D3 monoclonal antibody to mouse TfR (antibody, from another filing, V domains shown)
VH: EVQLVESGGGLVQPGNSLTLSCVASGFTFSNYGMHWIRQAPKKGLEWIAMIYYDSSKMNYADTVKGRFTISRDNSKNTLYLEMNSLRSEDTAMYYCAVPTSHYVVDVWGQGVSVTVSS
VL: DIQMTQSPASLSASLEEIVTITCQASQDIGNWLAWYQQKPGKSPQLLIYGATSLADGVPSRFSGSRSGTQFSLKISRVQVEDIGIYYCLQAYNTPWTFGGGTKLELK
With B1, the Octet signal as second antibody after buffer in test [1] was 0.33. Also, in test [2], the Kd turned out to be 0.221 nM, the dissociation rate constant (koff) came to 0.000131 s⁻¹ and the kon amounted to 591000 M⁻¹ s⁻¹. In addition, in test [3], the Kd turned out to be 0.247 nM, the koff worked out at 0.000126 s⁻¹ and the kon is 511000 M⁻¹ s⁻¹.
